From patent US20150093799A1

Key:
[1] = target: anti-Jo-1 antibodies (commercially available, from human patient samples) (human); test: immunodepletion: HRS polypeptide on NHS-agarose (Affi-gel 10), anti-Jo-1 antibodies (RDL) at 1:1,000, titre by ELISA before and after
[2] = target: anti-Jo-1 antibodies (commercially available, from human patient samples) (human); test: competitive ELISA: soluble competitor pre-incubated with anti-Jo-1 serum; competitor is plate-bound full-length human wild-type HisRS; A450
[3] = target: anti-Jo-1 antibodies (commercially available, from human patient samples) (human); test: competitive ELISA: soluble competitor pre-incubated with anti-Jo-1 serum; competitor is plate-bound full-length wild-type HisRS; A450
[4] = target: anti-Jo-1 antibodies (commercially available, from human patient samples) (human); test: competitive ELISA: soluble HisRS pre-incubated with anti-Jo-1 human serum at 1:2,000; competitor is plate-bound full-length wild-type HisRS; A450
[5] = target: anti-Jo-1 antibodies (commercially available, from human patient samples) (human); test: competitive ELISA, full-length histidyl-tRNA synthetase on the plate

B1: HRS(1-506) (enzyme)
chain: MAERAALEELVKLQGERVRGLKQQKASAELIEEEVAKLLKLKAQLGPDESKQKFVLKTPKGTRDYSPRQMAVREKVFDVIIRCFKRHGAEVIDTPVFELKETLMGKYGEDSKLIYDLKDQGGELLSLRYDLTVPFARYLAMNKLTNIKRYHIAKVYRRDNPAMTRGRYREFYQCDFDIAGNFDPMIPDAECLKIMCEILSSLQIGDFLVKVNDRRILDGMFAICGVSDSKFRTICSSVDKLDKVSWEEVKNEMVGEKGLAPEVADRIGDYVQQHGGVSLVEQLLQDPKLSQNKQALEGLGDLKLLFEYLTLFGIDDKISFDLSLARGLDYYTGVIYEAVLLQTPAQAGEEPLGVGSVAAGGRYDGLVGMFDPKGRKVPCVGLSIGVERIFSIVEQRLEALEEKIRTTETQVLVASAQKKLLEERLKLVSELWDAGIKAELLYKKNPKLLNQLQYCEEAGIPLVAIIGEQELKDGVIKLRSVTSREEVDVRREDLVEEIKRRTGQPL
Work on B1 yielded a percent of detectable Jo-1 antibodies removed [1] of less than 99% and an IC50 (read off the curve) [2] of 300 pM.

B2: Full-length histidyl-tRNA synthetase (HRS), His-tagged (enzyme)
chain: MAERAALEELVKLQGERVRGLKQQKASAELIEEEVAKLLKLKAQLGPDESKQKFVLKTPKGTRDYSPRQMAVREKVFDVIIRCFKRHGAEVIDTPVFELKETLMGKYGEDSKLIYDLKDQGGELLSLRYDLTVPFARYLAMNKLTNIKRYHIAKVYRRDNPAMTRGRYREFYQCDFDIAGNFDPMIPDAECLKIMCEILSSLQIGDFLVKVNDRRILDGMFAICGVSDSKFRTICSSVDKLDKVSWEEVKNEMVGEKGLAPEVADRIGDYVQQHGGVSLVEQLLQDPKLSQNKQALEGLGDLKLLFEYLTLFGIDDKISFDLSLARGLDYYTGVIYEAVLLQTPAQAGEEPLGVGSVAAGGRYDGLVGMFDPKGRKVPCVGLSIGVERIFSIVEQRLEALEEKIRTTETQVLVASAQKKLLEERLKLVSELWDAGIKAELLYKKNPKLLNQLQYCEEAGIPLVAIIGEQELKDGVIKLRSVTSREEVDVRREDLVEEIKRRTGQPLCICAAALEHHHHHH
For B2, the percent of detectable Jo-1 antibodies removed [1] was 93%, the IC50 (read off the curve) [3] was 30 pM and the IC50 (read off the curve) [2] was 300 pM. For the same binder, the IC50 (read off the curve) [4] was 800 pM.

B3: Resokine (HRS(1-60)), His-tagged (peptide)
chain: MAERAALEELVKLQGERVRGLKQQKASAELIEEEVAKLLKLKAQLGPDESKQKFVLKTPKHHHHHH
With B3 the percent of detectable Jo-1 antibodies removed [1] was 20% and the concentration above which competition is seen [5] was greater than 100 nM.
